Assay results: patent US20230390406A1, “Star Polymer Drug Conjugates” (Vaccitech North America, Inc., priority 2020, published 2023)

What was measured:
[1] = small molecule, not polymer-bound; cited from earlier work
[2] = tested on: Compound AH, Ac-A′VB-AMC
[3] = tested on: Compound AJ, Ac-A′SK(Ac)VB-AMC
[4] = tested on: Compound AM, Ac-A′VnL-AMC
[5] = tested on: Compound AK, Ac-A′SK(Ac)SB-AMC
[6] = tested on: Compound AL, Ac-A′SKSB-AMC
[7] = tested on: Compound AI, Ac-A′SPVB-AMC
[8] = tested on: Compound AN, Ac-A′SPVnL-AMC
[9] = tested on: Compound AO, Ac-A′SK(Ac)SnL-AMC
[10] = tested on: Compound AP, Ac-A′SKSnL-AMC

Molecule | pKa [1] | cleavage of the peptide-AMC bond (HPLC, UV 350 nm, up to 6 hrs) [2] | cleavage of the peptide-AMC bond (HPLC, UV 350 nm, up to 6 hrs) [3] | cleavage of the peptide-AMC bond (HPLC, UV 350 nm, up to 6 hrs) [4] | cleavage of the peptide-AMC bond (HPLC, UV 350 nm, up to 6 hrs) [5] | cleavage of the peptide-AMC bond (HPLC, UV 350 nm, up to 6 hrs) [6] | cleavage of the peptide-AMC bond (HPLC, UV 350 nm, up to 6 hrs) [7] | cleavage of the peptide-AMC bond (HPLC, UV 350 nm, up to 6 hrs) [8] | cleavage of the peptide-AMC bond (HPLC, UV 350 nm, up to 6 hrs) [9] | cleavage of the peptide-AMC bond (HPLC, UV 350 nm, up to 6 hrs) [10]
CC(C)(CCN)C(=O)O [DMBA, 4-amino-2,2-dimethylbutanoic acid] | about 4.8 | – | – | – | – | – | – | – | – | –
cathepsin B (Sino Biological, protein human recombinant) | – | found to be metabolized quickly in the presence of cathepsin B as well as mouse plasma | Compound AJ was relatively stable in both matrices | found to be metabolized quickly in the presence of cathepsin B as well as mouse plasma | showed significant stability in mouse plasma, but were readily cleaved in the presence of human cathepsin | showed significant stability in mouse plasma, but were readily cleaved in the presence of human cathepsin | found to be metabolized quickly in the presence of cathepsin B as well as mouse plasma | found to be metabolized quickly in the presence of cathepsin B as well as mouse plasma | showed significant stability in mouse plasma, but were readily cleaved in the presence of human cathepsin | showed significant stability in mouse plasma, but were readily cleaved in the presence of human cathepsin
